Assay results reported in patent US12552837B2, “Bicyclic peptide ligands with detectable moieties and uses thereof” (BicycleRD Limited, priority 2017, dated 2026).
*1 amine or outer side, *2 acyl side, *3 side chain or, on linkers, in order; H or OH if unused. Where a SMILES comes first, the peptide text is derived from it. Bridges are numbered along the chain shown (N, C = ends). [ ]: non-standard residue; d: D form. The star is where a group is joined. DOTA = O=C(O)CN1CCN(CC(=O)O)CCN(CC(=O)*)CCN(CC(=O)O)CC1; 1Nal = N[C@@H](Cc1cccc2ccccc12)C(=O)O; TBMB = c1c(C[*:1])cc(C[*:3])cc1C[*:2]; Palmitoyl = CCCCCCCCCCCCCCCC(=O)*; Tle = CC(C)(C)[C@H](N)C(=O)O; Aib = CC(C)(N)C(=O)O; βAla = NCCC(=O)O; Sar = CNCC(=O)O

Tests used:
HT1080 tumor = assay: Organ distribution of 177Lu-labelled peptides in HT1080 xenograft mice; assay type: in vivo, BALB/c nu/nu mice
Description: (§1) General procedure for radiolabelling with Lu-177.
(§2) • 50 μL 0.25 M Na-Acetate buffer pH 5.2+0.1% Tween 20; • 10 μL [Lu-177]LuCl3 in 0.05 M HCl; and • 2 μL of the diluted peptide (2 nmols). […]
(§3) Organ distribution studies, general method: For organ distribution, the respective dose is prepared by dilution of the labeling reaction mixture in injection buffer (0.25 M Na-Acetate pH 7+0.05% Tween20). The ^177Lu-radiolabeled peptide was injected via the tail vein of the nu/nu mice (50 kBq per mouse), transplanted with the respective cell line. At indicated time points after injection the animals were sacrificed. Blood, heart, lung, spleen, liver, kidney, muscle, brain, femur, and the tumor were dissected, blotted dry, and weighed. The radioactivity was measured with a γ-counter (CobraII; Canberra Packard) along with a sample of the injection solution to calculate the percentage injected dose per gram of tissue (% ID/g).
(§4) The γ- and β-emitter ^177LuCl3 (NEZ307D, Perkin Elmer, in 0.04 M HCl), with a t1/2 of 6.7 days was used for both in vivo biodistribution and internalization studies. Labeling reactions were performed by adding 10 μL ^177LuCl3 (˜10 MBq) in 50 mM HCl, 2 μL of the diluted peptide (1 mM solution in 50 mM HEPES buffer pH 7+0.1% Tween 20 diluted from a 10 mM DMSO stock) to 50 μL 50 mM HEPES buffer pH 7 supplemented with 0.1% Tween 20. The reaction mixture was incubated at 98° C. for 10 minutes. The radiochemical yield (RCY) was determined using high performance liquid chromatography (HPLC) system equipped with a Latek P402 (Latek, Eppelheim, Germany), a HITACHI variable UV detector (absorbance was measured at 214 and 254 nm) and a gamma detector (Bioscan, WA, USA), using a Chromolith RP-18 column (100×4.6 mm; Merck). The analytical HPLC run was performed at 4 mL/min, using a linear A (0.1% trifluoroacetic acid (TFA) in water) to B (0.1% TFA in acetonitrile) gradient (0% B to 100% B in 6 min). Thin-layer chromatography was performed in parallel to confirm the results of the radio-HPLC. The RCY was generally >95%, and thus, the output of labelling reactions was directly diluted with the appropriate buffer and further unlabeled peptide if required, to use in subsequent experiments.
(§5) 5×10^6 cells of HT1080 were subcutaneously inoculated into the right trunk of male 6-week-old BALB/c nu/nu mice (Charles River Laboratories). The tumors were grown for approximately 1 week, to a maximum size of ˜200 mm^3. Respective doses were prepared by mixing a fixed quantity of 5 pmoles ^177Lu labelled peptides (at approx. 50 kBq) with different quantities of non-labelled peptide (derived from 1 mM stock solution in 0.25 M sodium acetate pH 7+0.05% Tween20) in 100 μL injection buffer (0.25 M sodium acetate pH 7+0.05% Tween20). 3 animals were used per dose and timepoint. Radiolabelled peptide solutions were injected via the tail vein, followed by sacrifice at various time points. Organs of interest (blood, heart, lung, spleen, liver, kidney, muscle, small intestine, brain, HT1080 tumor) were dissected, blotted dry, and weighed. The radioactivity was measured using a gamma counter and calculated as % ID/g.

MT1-MMP hemopexin domain = MT1-MMP hemopexin domain (Homo sapiens, UniProt P50281); assay: Fluorescence polarization direct binding / competition assay to MT1-MMP hemopexin domain
Description: Direct Binding Fluorescence Polarization or Anisotropy Assays are performed by titrating a constant concentration of fluorescent tracer (here, the fluoresceinated bicyclic peptide to be studied) with its binding partner (here, the MT1-MMP hemopexin domain). As the concentration of binding partner increases during the titration, the polarization signal changes in proportion to the fraction of bound and unbound material. This allows determination of […] (Kd) quantitatively. Assay data can be fit using standard ligand binding equations.
Typically, concentrations of the tracer are ideally well below the Kd of the tracer: titrant pair, and concentrations chosen are usually at ˜1 nM or less. The titrant (binding partner) concentration is varied from 0.1 nM up to typically 5 μM. The range is chosen such that the maximum change in fluorescent polarization can be observed. Buffers employed are phosphate buffered saline in the presence of 0.01% Tween. Experiments were run in black 384 well low-bind/low volume plates (Corning 3820), and the fluorescent polarization signal was measured using a BMG Pherastar FS plate reader. Fluorescent tracers referred to in the text are bicyclic peptides that have been fluoresceinated using 5,6-carboxyfluorescein. Fluoresceination may be performed on the N-terminal amino group of the peptide, which is separated from the bicycle core sequence by a sarcosine spacer (usually Sar10 (SEQ ID NO: 73)). This can be done during Fmoc solid phase synthesis or post-synthetically (after cyclization with the molecular scaffold reagent and purification) if the N-terminal amino group is unique to the peptide. Fluoresceination can also be performed on the C-terminus, usually on a Lysine introduced as the first C-terminal residue, which is then separated from the bicycle core sequence by a sarcosine spacer (usually Sar6 (SEQ ID NO: 69)). Thus, N-terminal tracers can have a molecular format described as Fluo-Ala-Sar10-A (SEQ ID NO: 72) (BicycleCoreSequence), and (BicycleCoreSequence)-A-Sar6-K (Fluo) (SEQ ID NO: 67) for a C-terminally fluoresceinated construct.
Fluorescent tracers used in the Examples are A-(17-69)-A-Sar6-K (Fluo) (SEQ ID NO: 67), A-(17-69-07)-A-Sar6-K (Fluo) (SEQ ID NO: 67), and A-(17-69-12)-A-Sar6-K (Fluo) (SEQ ID NO: 67). Due to the acidic nature of the 17-69 fluorescent peptides, they were typically prepared as concentrated DMSO stocks, from which dilution were prepared in 100 mM Tris pH 8 buffer.
Due to their high affinities to the MT1-MMP Hemopexin domain (PEX), the fluoresceinated derivatives of 17-69-07 and 17-69-12 (denoted as 17-69-07-N040 and 17-69-12-N005, respectively) can be used for competition experiments (using FP for detection). […] Dissociation of the complex can be measured quantitatively, and the Kd of the competitor (titrant) to the target protein determined. The advantage of the competition method is that the affinities of non-fluoresceinated bicyclic peptides can be determined accurately and rapidly.
Subsequently, the non-fluorescent competitor bicyclic peptide (usually just the bicycle core sequence) is titrated, such that it displaces the fluorescent tracer from the target protein. The displacement of the tracer is measured and associated with a drop in fluorescence polarization. The drop in fluorescence polarization is proportional to the fraction of target protein bound with the non-fluorescent titrant, and thus is a measure of the affinity of titrant to target protein. […]

[1] = Organ distribution of 177Lu-labelled peptides in HT1080 xenograft mice; assay type: in vivo, BALB/c nu/nu mice; details: male, BALB/c nu/nu, mouse, HT1080 tumor, iv, total radioactivity; 1 h p.i. of 150 pmoles
Description: as §1, §2, §3, §4, §5

SMILES | blocking of tumor uptake at a dose of 500 pmoles (HT1080 tumor; 1 h post injection) | blocking of tumor uptake using 5 nmoles (HT1080 tumor; 1 h post injection) | Kd (MT1-MMP hemopexin domain) [nM] | tissue uptake at 1 h [1] [%ID/g] | other results
CC(C)[C@H](NC(=O)[C@@H](CC(=O)O)NC(=O)[C@H](Cc1c[nH]cn1)NC(=O)CN(C)C(=O)CN(C)C(=O)CN(C)C(=O)CN(C)C(=O)CN(C)C(=O)CN(C)C(=O)CN(C)C(=O)CN(C)C(=O)CN(C)C(=O)CN(C)C(=O)CCNC(=O)CN1CCN(CC(=O)O)CCN(CC(=O)O)CCN(CC(=O)O)CC1)C(=O)N1CCC[C@H]1C(=O)N[C@H]1CSCc2cc3cc(c2)CSC[C@H](NC(=O)[C@H](Cc2cccc4ccccc24)NC(=O)[C@H](Cc2ccccc2)NC(=O)C(C)(C)NC(=O)CNC(=O)[C@H](Cc2cccc4ccccc24)NC(=O)[C@@H]2CCCN2C1=O)C(=O)N1CCC[C@H]1C(=O)N[C@@H](C(C)(C)C)C(=O)N[C@@H](CC(N)=O)C(=O)N[C@@H](CCCNC(=N)N)C(=O)NC(C)(C)C(=O)N[C@H](CC(=O)O)C(=O)N[C@H](C(N)=O)CSC3 [I-17] ({DOTA-βAla}-[Sar][Sar][Sar][Sar][Sar][Sar][Sar][Sar][Sar][Sar]H[dD]VPCP[1Nal]G[Aib]F[1Nal]CP[Tle]NR[Aib][dD]C-NH2; linker 15-22-29 via TBMB) | slightly blocked | nearly completely blocked | – | – | –
C[C@H](NC(=O)CN(C)C(=O)CN(C)C(=O)CN(C)C(=O)CN(C)C(=O)CN(C)C(=O)CN(C)C(=O)CN(C)C(=O)CN(C)C(=O)CN(C)C(=O)CN(C)C(=O)CCNC(=O)CN1CCN(CC(=O)O)CCN(CC(=O)O)CCN(CC(=O)O)CC1)C(=O)N[C@H]1CSCc2cc3cc(c2)CSC[C@H](NC(=O)[C@@H](C)NC(=O)[C@H](Cc2cccc4ccccc24)NC(=O)[C@H](CCC(=O)O)NC(=O)[C@H](CC(N)=O)NC(=O)[C@@H](C)NC1=O)C(=O)N[C@@H](CCC(=O)O)C(=O)N[C@@H](CC(=O)O)C(=O)N[C@@H](Cc1ccccc1)C(=O)N[C@@H](Cc1ccc(O)cc1)C(=O)N[C@@H](CC(=O)O)C(=O)N[C@@H](C(C)(C)C)C(=O)N[C@H](C(N)=O)CSC3 [I-24] ({DOTA-βAla}-[Sar][Sar][Sar][Sar][Sar][Sar][Sar][Sar][Sar][Sar]AC[dA]NE[1Nal][dA]CEDFYD[Tle]C-NH2; linker 12-18-25 via TBMB) | slightly blocked | nearly completely blocked | 1.37 ± 0.53 | 7.04 ± 2.83 | signal in the tumor compared to I-23 (HT1080 tumor; 1 h post injection): slightly lower; tumor uptake compared to 17-69-07-N144 (HT1080 tumor; 1 h post injection): significantly greater
C[C@H](NC(=O)CN1CCN(CC(=O)O)CCN(CC(=O)O)CCN(CC(=O)O)CC1)C(=O)N[C@H]1CSCc2cc3cc(c2)CSC[C@H](NC(=O)[C@H](C)NC(=O)[C@H](Cc2cccc4ccccc24)NC(=O)[C@H](CCC(=O)O)NC(=O)[C@H](CC(N)=O)NC(=O)[C@@H](C)NC1=O)C(=O)N[C@@H](C)C(=O)N[C@@H](CC(=O)O)C(=O)N[C@@H](Cc1ccccc1)C(=O)N[C@@H](Cc1ccc(O)cc1)C(=O)N[C@@H](CC(=O)O)C(=O)N[C@@H](C(C)(C)C)C(=O)N[C@H](C(N)=O)CSC3 [I-26] ({DOTA}-AC[dA]NE[1Nal]ACADFYD[Tle]C-NH2; linker 2-8-15 via TBMB) | – | – | > 5000 | – | tumor uptake compared with the binding variant I-23 (HT1080 tumor; organ distribution, FIG. 8): essentially absent
C[C@H](NC(=O)CN(C)C(=O)CN(C)C(=O)CN(C)C(=O)CN(C)C(=O)CN(C)C(=O)CN(C)C(=O)CN(C)C(=O)CN(C)C(=O)CN(C)C(=O)CN(C)C(=O)CCNC(=O)CN1CCN(CC(=O)O)CCN(CC(=O)O)CCN(CC(=O)O)CC1)C(=O)N[C@H]1CSCc2cc3cc(c2)CSC[C@H](NC(=O)[C@H](C)NC(=O)[C@H](Cc2cccc4ccccc24)NC(=O)[C@H](CCC(=O)O)NC(=O)[C@H](CC(N)=O)NC(=O)[C@@H](C)NC1=O)C(=O)N[C@@H](C)C(=O)N[C@@H](CC(=O)O)C(=O)N[C@@H](Cc1ccccc1)C(=O)N[C@@H](Cc1ccc(O)cc1)C(=O)N[C@@H](CC(=O)O)C(=O)N[C@@H](C(C)(C)C)C(=O)N[C@H](C(N)=O)CSC3 [I-27] ({DOTA-βAla}-[Sar][Sar][Sar][Sar][Sar][Sar][Sar][Sar][Sar][Sar]AC[dA]NE[1Nal]ACADFYD[Tle]C-NH2; linker 12-18-25 via TBMB) | – | – | > 5000 | 0.28 ± 0.05 | –
CCCCCCCCCCCCCCCC(=O)NCCC(=O)N(C)CC(=O)N(C)CC(=O)N(C)CC(=O)N(C)CC(=O)N(C)CC(=O)N[C@@H](CCCCNC(=O)CN1CCN(CC(=O)O)CCN(CC(=O)O)CCN(CC(=O)O)CC1)C(=O)N(C)CC(=O)N(C)CC(=O)N(C)CC(=O)N(C)CC(=O)N(C)CC(=O)N(C)CC(=O)N(C)CC(=O)N(C)CC(=O)N(C)CC(=O)N(C)CC(=O)N[C@@H](C)C(=O)N[C@H]1CSCc2cc3cc(c2)CSC[C@H](NC(=O)[C@H](C)NC(=O)[C@H](Cc2cccc4ccccc24)NC(=O)[C@H](CCC(=O)O)NC(=O)[C@H](CC(N)=O)NC(=O)[C@@H](C)NC1=O)C(=O)N[C@@H](C)C(=O)N[C@@H](CC(=O)O)C(=O)N[C@@H](Cc1ccccc1)C(=O)N[C@@H](Cc1ccc(O)cc1)C(=O)N[C@@H](CC(=O)O)C(=O)N[C@@H](C(C)(C)C)C(=O)N[C@H](C(N)=O)CSC3 [I-29] ({Palmitoyl-βAla}-[Sar][Sar][Sar][Sar][Sar]K(DOTA)[Sar][Sar][Sar][Sar][Sar][Sar][Sar][Sar][Sar][Sar]AC[dA]NE[1Nal]ACADFYD[Tle]C-NH2; linker 18-24-31 via TBMB) | – | – | – | – | tumour uptake (HT1080 tumor; 750 pmole per mouse, 6 hour timepoint): 4.8%
